Several values for one entry are separate records, joined by “and”; a condition that tells them apart may be missing. Equal values may be shown once.
Details: whole UniProt chain shown
[1] = Cavia porcellus, pH 7.4, 25 °C, Urea, CD, NaPi 0.01 M, NaCl 0.15 M, reversible: Yes
[2] = Cavia porcellus, pH 7.4, Thermal, DSC, NaPi 0.01 M, NaCl 0.15 M, reversible: No
[3] = Enterobacteria phage 434, pH 6, 20 °C, Urea, Fluorescence, KH2PO4 25 mM, KCl 100 mM, reversible: yes(>95%)
[4] = Enterobacteria phage 434, pH 6, 20 °C, Urea, far-UV CD, KH2PO4 25 mM, KCl 100 mM, reversible: yes(>95%)
[5] = Enterobacteria phage 434, pH 7, Thermal, DSC, K-phosphate 20 mM
[6] = Drosophila melanogaster, pH 6.5, 25 °C, Urea, Fluorescence, sodium phosphate 20 mM
[7] = Bos taurus, pH 7, 25 °C, GdnHCl, Absorbance, MOPS 30 mM, reversible: yes
[8] = Bos taurus, pH 7, 25 °C, GdnHCl, Fluorescence, MOPS 30 mM, reversible: yes
[9] = Bos taurus, pH 7, 25 °C, GdnSCN, Fluorescence, MOPS 30 mM, reversible: YES
[10] = Bos taurus, pH 7.2, 25 °C, Urea, CD, Phosphate 20 mM, reversible: yes
[11] = Bos taurus, pH 7.4, Thermal, DSC, sodium phosphate 50 mM, reversible: yes

B1: wild type, Q8VD40 (protein)
chain: MDGDGDPESVGQPEEVSPEEACAEEACAEGDRPGEEEEEEQEELEEAAYLAELPEALLLRVLAQLPAAELVQACRLVCLRWKELVDGAPLWLLKCQQEGLVPEGCGEEEERDHWQRFYFLSKRRRNLLRNPCGEEDLEGWCDVEHGGDGWRVEEIPGDSGVEFPQDDSVRKYFASSFEWCRKAQVVDLQAEGYWEELLDTTQPAIVAKDWYSGRSDAGCLYELSVKLLSEHEDVLAEFNTGQVPVSPDSEEGGWTEISHTFTDYGPGVRFVRFEHGGQDAVYWKGWFGARVTNSSVWVEP
B1 showed a denaturant m value [1] of 0.79 kcal/mol/M, an unfolding free energy [1] of 2.64 kcal/mol and a Tm [2] of 57 °C. For the same protein, the “unfolding enthalpy (calorimetric)” value [2] was 141 kcal/mol.

B2: Regulatory protein cro wild type, P03036 (protein)
chain: MQTLSERLKKRRIALKMTQTELATKAGVKQQSIQLIEAGVTKRPRFLFEIAMALNCDPVWLQYGTKRGKAA
With B2 the denaturant m value [3] was 1.05 kcal/mol/M, the “denaturant midpoint (higher = more stable)” value (shortened to “denaturant midpoint”) [3] was 3.35 M and the unfolding free energy [3] was 3.5 kcal/mol. For the same protein, the denaturant m value [4] was 1.02 kcal/mol/M, the “denaturant midpoint” value [4] was 3.5 M and the unfolding free energy [4] was 3.6 kcal/mol. The Tm [5] was 46.4 °C and the “unfolding enthalpy (calorimetric)” value [5] was 53.8 kcal/mol.

B3: Lysozyme C wild type, P00708 (protein)
chain: KDIPRCELVKILRRHGFEGFVGKTVANWVCLVKHESGYRTTAFNNNGPNSRDYGIFQINSKYWCNDGKTRGSKNACNINCSKLRDDNIADDIQCAKKIAREARGLTPWVAWKKYCQGKDLSSYVRGC
Work on B3 yielded a Tm (Columba livia, pH 6, Thermal, CD, MES 50 mM, potassium chloride 100 mM, transition: 3) of 70 °C.

B4: General odorant-binding protein lush wild type, O02372 (protein)
chain: MKHWKRRSSAVFAIVLQVLVLLLPDPAVAMTMEQFLTSLDMIRSGCAPKFKLKTEDLDRLRVGDFNFPPSQDLMCYTKCVSLMAGTVNKKGEFNAPKALAQLPHLVPPEMMEMSRKSVEACRDTHKQFKESCERVYQTAKCFSENADGQFMWP
With B4 the denaturant m value [6] was 1.24 kcal/mol/M and 1.76 kcal/mol/M and 1.77 kcal/mol/M, the “denaturant midpoint” value [6] was 2.39 M and 2.98 M and 4.11 M and the unfolding free energy [6] was 3.02 kcal/mol and 5.26 kcal/mol and 7.35 kcal/mol.

B5: Cytochrome b5 wild type, P00171 (protein)
chain: MAEESSKAVKYYTLEEIQKHNNSKSTWLILHYKVYDLTKFLEEHPGGEEVLREQAGGDATENFEDVGHSTDARELSKTFIIGELHPDDRSKITKPSESIITTIDSNPSWWTNWLIPAISALFVALIYHLYTSEN
With B5 the unfolding free energy (Bos taurus, pH 7, 10 °C, GdnHCl, Fluorescence, MOPS 30 mM, reversible: yes) was 2.77 kcal/mol, the “denaturant midpoint” value (Bos taurus, pH 7, 25 °C, GdmSCN, UV/visible spectrophotometer, MOPS 30mM) was 1.52 M and the denaturant m value [7] was 2.14 kcal/mol/M. For the same protein, the “denaturant midpoint” value [7] was 3.05 M, the unfolding free energy [7] was 6.57 kcal/mol and the denaturant m value [8] was 2.05 kcal/mol/M. The “denaturant midpoint” value [8] was 2.99 M, the unfolding free energy [8] was 6.09 kcal/mol and the denaturant m value [9] was 2.4 kcal/mol/M and 1.7 kcal/mol/M. The unfolding free energy [9] was 3.2 kcal/mol and 2.7 kcal/mol, the unfolding free energy (Bos taurus, pH 7, 25 °C, Thermal, DSC, sodium phosphate 50 mM, reversible: yes) was 5.98 kcal/mol and the Tm (Bos taurus, pH 7, Thermal, Fluorescence, potassium phosphate 50 mM, reversible: YES) was 85.5 °C. For the same protein, the Tm (Bos taurus, pH 7, Thermal, UV spectroscopy, Sodium phosphate 50 mM, reversible: Yes) was 79.4 °C, the Tm (Bos taurus, pH 7, Thermal, UV/visible spectrophotometer, Potassium phosphate 50mM) was 67.6 °C and the denaturant m value [10] was 0.93 kcal/mol/M. For the same protein, the unfolding free energy [10] was 6.57 kcal/mol, the “unfolding enthalpy (van 't Hoff)” value (Bos taurus, pH 7.2, Thermal, Absorbance, Phosphate 20 mM, reversible: yes) was 82.5 kcal/mol and 33.9 kcal/mol and the Tm [11] was 70.7 °C. For the same protein, the “heat capacity change of unfolding” value [11] was 0.13 kcal/mol/K.

Reference: FireProtDB
